US20250382602
Positions count from the first letter of the chain named.

Legend:
Details in all cases: nanopore translocation; background mutations not given
[1] = biological target: T1, Dda 1993 K177E K177E (Enterobacteria phage T4) (UniProt P32270)
T1 sequence: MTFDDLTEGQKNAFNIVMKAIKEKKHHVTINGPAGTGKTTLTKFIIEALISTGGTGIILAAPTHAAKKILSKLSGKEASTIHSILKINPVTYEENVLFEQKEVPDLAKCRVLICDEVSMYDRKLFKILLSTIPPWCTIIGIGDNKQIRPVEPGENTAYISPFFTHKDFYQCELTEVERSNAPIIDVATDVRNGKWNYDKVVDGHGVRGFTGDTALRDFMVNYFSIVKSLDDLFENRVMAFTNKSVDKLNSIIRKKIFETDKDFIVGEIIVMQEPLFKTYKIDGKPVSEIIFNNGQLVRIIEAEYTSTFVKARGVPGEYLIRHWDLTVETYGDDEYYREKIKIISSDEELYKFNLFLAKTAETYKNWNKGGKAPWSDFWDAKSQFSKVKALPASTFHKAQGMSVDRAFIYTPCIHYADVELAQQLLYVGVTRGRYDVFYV

[2] = biological target: T2, Dda 1993 K177L K177L (Enterobacteria phage T4) (UniProt P32270)
T2 sequence: T1 sequence with E177L

[3] = biological target: T3, Dda 1993 K177M K177M (Enterobacteria phage T4) (UniProt P32270)
T3 sequence: T1 sequence with E177M

[4] = biological target: T4, Dda 1993 K177N K177N (Enterobacteria phage T4) (UniProt P32270)
T4 sequence: T1 sequence with E177N

[5] = biological target: T5, Dda 1993 K177S K177S (Enterobacteria phage T4) (UniProt P32270)
T5 sequence: T1 sequence with E177S

[6] = biological target: T6, Dda 1993 K177T K177T (Enterobacteria phage T4) (UniProt P32270)
T6 sequence: T1 sequence with E177T

Substance: barcoded 3.6 kb DNA analyte ligated to sequencing Y adaptor
- activity (bps speed delta vs control) [1]: 58.7
- activity (bps speed delta vs control) [2]: 51.4
- activity (bps speed delta vs control) [3]: 48.3
- activity (bps speed delta vs control) [4]: 2.4
- activity (bps speed delta vs control) [5]: -31.1
- activity (bps speed delta vs control) [6]: 22.6
